How the values were obtained:
Experiment in all cases: cytokine release
[1] = target: T1, HPV16 oncoprotein E5 peptide on HLA-B*15:01 (human)
T1 peptide: LLLWITAASAF

[2] = target: T2, HPV16 oncoprotein E5 peptide on HLA-B*15:01 (human)
T2 peptide: AASAFRCFIVY

[3] = target: T3, HPV16 oncoprotein E5 peptide on HLA-B*15:01 (human)
T3 peptide: WITAASAFRCFIVY

[4] = target: T4, HPV16 oncoprotein E5 peptide on HLA-B*15:01 (human)
T4 peptide: LLWITAASAF

[5] = target: T5, HPV16 oncoprotein E5 peptide on HLA-B*15:01 (human)
T5 peptide: WITAASAF

[6] = target: T6, HPV16 oncoprotein E5 peptide on HLA-B*15:01 (human)
T6 peptide: TAASAFRCFIVY

[7] = target: T7, HPV16 oncoprotein E5 peptide on HLA-B*15:01 (human)
T7 peptide: ASAFRCFIVY

[8] = target: T8, HPV16 oncoprotein E5 peptide on HLA-B*15:01 (human)
T8 peptide: ITAASAFRCFIVY

B1: HPV16 E5-specific TCR (TRAV17 + TRBV6-5) (TCR, V domains shown)
Valpha: SQQGEEDPQALSIQEGENATMNCSYKTSINNLQWYRQNSGRGLVHLILIRSNEREKHSGRLRVTLDTSKKSSSLLITASRAADTASYFCAESEYGNKLVFGAGTILRVKS
Vbeta: NAGVTQTPKFQVLKTGQSMTLQCAQDMNHEYMSWYRQDPGMGLRLIHYSVGAGITDQGEVPNGYNVSRSTTEDFPLRLLSAAPSQTSVYFCASSYRQQETQYFGPGTRLLVL
[1]
  binding result: no recognition
[2]
  binding result: recognises
[3]
  binding result: recognises
[4]
  binding result: no recognition
[5]
  binding result: no recognition
[6]
  binding result: recognises
[7]
  binding result: recognises
[8]
  binding result: recognises
